The source of these data is patent US20140017714.

For data set [1], the target named is T1, full-length human recombinant IGFBP-4.
T1 chain: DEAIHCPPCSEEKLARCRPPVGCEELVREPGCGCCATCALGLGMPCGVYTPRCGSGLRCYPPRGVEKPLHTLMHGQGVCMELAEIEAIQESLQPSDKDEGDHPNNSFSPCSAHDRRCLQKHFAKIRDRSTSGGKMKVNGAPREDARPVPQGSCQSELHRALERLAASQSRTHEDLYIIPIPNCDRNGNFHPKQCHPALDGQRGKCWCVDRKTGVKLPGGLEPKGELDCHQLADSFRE

Data set [2] concerns the target full-length human recombinant IGFBP-5.

Chain of full-length human recombinant IGFBP-5 (chain, as listed by the source): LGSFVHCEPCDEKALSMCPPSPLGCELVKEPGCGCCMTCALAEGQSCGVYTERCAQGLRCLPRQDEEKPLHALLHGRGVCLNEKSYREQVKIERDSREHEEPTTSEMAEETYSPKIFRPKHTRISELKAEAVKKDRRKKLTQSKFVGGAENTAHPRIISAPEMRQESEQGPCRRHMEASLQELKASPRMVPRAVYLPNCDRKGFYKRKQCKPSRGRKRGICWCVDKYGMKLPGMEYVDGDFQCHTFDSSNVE

B1: atherosclerotic form of PAPP-A (protein)
chain: EARGATEEPSPPSRALYFSGRGEQLRLRADLELPRDAFTLQVWLRAEGGQRSPAVITGLYDKCSYISRDRGWVVGIHTISDQDNKDPRYFFSLKTDRARQVTTINAHRSYLPGQWVYLAATYDGQFMKLYVNGAQVATSGEQVGGIFSPLTQKCKVLMLGGSALNHNYRGYIEHFSLWKVARTQREILSDMETHGAHTALPQLLLQENWDNVKHAWSPMKDGSSPKVEFSNAHGFLLDTSLEPPLCGQTLCDNTEVIASYNQLSSFRQPKVVRYRVVNLYEDDHKNPTVTREQVDFQHHQLAEAFKQYNISWELDVLEVSNSSLRRRLILANCDISKIGDENCDPECNHTLTGHDGGDCRHLRHPAFVKKQHNGVCDMDCNYERFNFDGGECCDPEITNVTQTCFDPDSPHRAYLDVNELKNILKLDGSTHLNIFFAKSSEEELAGVATWPWDKEALMHLGGIVLNPSFYGMPGHTHTMIHEIGHSLGLYHVFRGISEIQSCSDPCMETEPSFETGDLCNDTNPAPKHKSCGDPGPGNDTCGFHSFFNTPYNNFMSYADDDCTDSFTPNQVARMHCYLDLVYQGWQPSRKPAPVALAPQVLGHTTDSVTLEWFPPIDGHFFERELGSACHLCLEGRILVQYASNASSPMPCSPSGHWSPREAEGHPDVEQPCKSSVRTWSPNSAVNPHTVPPACPEPQGCYLELEFLYPLVPESLTIWVTFVSTDWDSSGAVNDIKLLAVSGKNISLGPQNVFCDVPLTIRLWDVGEEVYGIQIYTLDEHLEIDAAMLTSTADTPLCLQCKPLKYKVVRDPPLQMDVASILHLNRKFVDMDLNLGSVYQYWVITISGTEESEPSPAVTYIHGSGYCGDGIIQKDQGEQCDDMNKINGDGCSLFCRQEVSFNCIDEPSRCYFHDGDGVCEEFEQKTSIKDCGVYTPQGFLDQWASNASVSHQDQQCPGWVIIGQPAASQVCRTKVIDLSEGISQHAWYPCTISYPYSQLAQTTFWLRAYFSQPMVAAAVIVHLVTDGTYYGDQKQETISVQLLDTKDQSHDLGLHVLSCRNNPLIIPVVHDLSQPFYHSQAVRVSFSSPLVAISGVALRSFDNFDPVTLSSCQRGETYSPAEQSCVHFACEKTDCPELAVENASLNCSSSDRYHGAQCTVSCRTGYVLQIRRDDELIKSQTGPSVTVTCTEGKWNKQVACEPVDCSIPDHHQVYAASFSCPEGTTFGSQCSFQCRHPAQLKGNNSLLTCMEDGLWSFPEALCELMCLAPPPVPNADLQTARCRENKHKVGSFCKYKCKPGYHVPGSSRKSKKRAFKTQCTQDGSWQEGACVPVTCDPPPPKFHGLYQCTNGFQFNSECRIKCEDSDASQGLGSNVIHCRKDGTWNGSFHVCQEMQGQCSVPNELNSNLKLQCPDGYAIGSECATSCLDHNSESIILPMNVTVRDIPHWLNPTRVERVVCTAGLKWYPHPALIHCVKGCEPFMGDNYCDAINNRAFCNYDGGDCCTSTVKTKKVTPFPMSCDLQGDCACRDPQAQEHSRKDLRGYSHG
Take B1: the “proteolytic cleavage of IGFBP-4, Western blotting” value in data set [1] was “atherosclerotic form of PAPP-A was shown to cleave IGFBP-4 with the same efficiency as recombinant PAPP-A”.

B2: human recombinant PAPP-A (protein)
chain: B1 chain
As to B2, the “proteolytic cleavage of IGFBP-4, Western blotting” value in data set [1] is reported as “Western blotting detection of proteolytic fragments of IGFBP-4 demonstrating PAPP-A protease activity”. Further, the “proteolytic cleavage of IGFBP-5, SDS-PAGE with Coomassie staining” value in data set [2] is “PAPP-A-dependent cleavage of IGFBP-5 determined by sodium dodecyl sulphate polyacrylamide gel electrophoresis”.
